Source: the supplement of paper PMC10567573

B1: RIPK4 (parent)
chain: VIDLFDEQGLSALHLAAQGRHAQT
B2: SLC35F2 (parent)
chain: SFMPLVIKVTSATSVNLGILTADL

Variants of: B1
Test: protein stability index of a GFP-peptide fusion (GPS, HEK-293T) (PSI 1-6); higher = more stable
Settings: c terminus: a fixed tail appended
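Also: lentivirally expressed fusions sorted by FACS into six bins by GFP to DsRed ratio, PSI derived from sequencing read proportions per bin multiplied by bin number.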

Protein stability index of substitutions, site by site:
H21: K 3.41, Y 2.47, E 3.32, R 2.24, F 2.22, V 2.72, T 3.07, D 3.18, W 1.9, L 2.66, I 2.28, P 3.01, S 2.76, A 2.41, C 2.89, G 2.86, M 2.56, N 3.06, Q 3.23
R20: L 2.34, F 2.38, V 2.54, S 3.26, N 3.02, P 2.66, D 3.82, Q 3.29, H 2.8, Y 2.06, W 2.02, I 2.46, M 2.58, A 2.66, E 3.7, T 3.14, K 3.53, C 2.6, G 2.94
G19: P 2.76, F 1.91, K 3.13, Y 2.66, T 2.37, I 1.42, W 1.99, S 2.99, E 3.37, Q 3.07, A 2.57, L 1.63, H 2.59, N 3.03, D 3.55, R 2.44, V 1.71, M 1.64, C 2.25
L13: E 4.17, V 3.06, Y 2.53, I 2.75, G 3.87, S 3.58, H 3.48, N 3.3, W 2.82, M 3.66, D 4.04, K 3.61, C 2.22, P 4.04, R 3.31, T 3.56, A 3.38, F 2.87, Q 3.8
A22: H 2.87, I 2.14, N 3.09, K 3.17, Q 3.15, V 2.42, S 2.91, F 2.19, C 2.32, W 1.57, R 3.13, M 2.4, G 2.73, P 2.79, Y 2.23, T 3.03, L 2.1, D 3.03, E 3.61
H14: K 2.8, D 3.6, I 1.88, R 3.25, E 4.04, L 2.33, Y 2.09, M 1.89, N 3.5, V 2.28, Q 3.2, T 2.95, C 2.1, W 1.9, P 3.54, A 2.49, G 2.6, S 2.55, F 1.82
Q23: D 3.69, Y 2.06, H 2.49, A 2.67, I 2.16, S 2.6, N 2.84, L 2.52, K 3.17, R 3.49, T 2.72, C 2.59, G 2.8, M 1.84, W 1.93, V 2.53, E 3.48, P 2.66, F 1.76
A17: P 2.82, Y 2.49, K 2.8, L 1.98, C 2.54, F 2.47, H 2.72, T 2.7, I 2.69, R 3.17, E 3.54, V 2.92, D 3.84, G 2.72, Q 2.98, S 2.83, M 1.99, N 3.13, W 1.75
Q8: T 2.65, A 2.73, V 2.53, I 1.46, M 2.08, C 1.76, F 2.05, L 1.66, N 2.86, S 2.65, W 1.45, R 2.82, Y 2.25, G 3.12, E 2.98, P 3.22, K 2.58, H 2.61, D 3.07
A16: D 3.55, S 3.15, E 3.2, N 3.46, R 2.42, W 1.51, Q 2.77, M 2.4, H 2.83, Y 2.08, C 2.59, F 1.99, I 2.35, P 3.42, K 2.98, V 2.01, T 3.11, G 3.27, L 1.85
L15: K 3.39, W 2.26, T 3.51, Q 3.3, F 2.41, A 3.31, R 2.94, M 3.09, V 3.07, H 3.3, N 3.8, P 3.37, S 4.01, C 2.74, I 2.81, G 3.74, Y 2.32, D 3.39, E 3.47
Q18: K 2.17, S 2.64, F 2.01, N 2.88, H 2.18, R 3.06, M 2.15, T 2.36, L 1.85, D 3.42, P 2.82, C 2.3, I 2.51, A 2.27, Y 2.22, W 2.88, E 3.19, G 2.9, V 2.3
L10: Y 2.75, T 3.08, F 2.83, D 3.93, R 3.23, P 3.63, V 2.97, C 3.2, E 4.48, M 3.04, I 2.67, N 3.83, H 3.19, Q 3.25, G 3.6, K 3.31, A 3.33, W 2.23, S 3.76
G9: M 1.93, C 2.19, P 3.2, W 1.69, A 2.76, Q 2.75, Y 1.6, L 2.07, R 2.4, I 1.94, H 2.77, K 2.56, S 2.68, T 2.25, E 3.13, N 3.41, V 1.66, D 3.16, F 1.61
S11: W 2.52, N 2.95, I 2.13, R 2.03, F 2.43, A 2.79, Q 2.95, D 3.04, T 2.63, G 2.94, L 2.36, M 2.18, Y 2.31, H 2.51, E 3.11, K 2.65, V 2.12, C 2.63, P 2.95
E7: S 2.73, V 2.32, W 1.98, R 1.98, P 2, Y 1.48, T 2.45, Q 2.35
A12: I 1.91, H 2.6, Q 3.29, G 2.39, E 3.54, V 1.99, T 2.82, D 3.21, S 2.96, N 3.1, W 2.12, M 2.46, K 3.5, L 1.98, Y 2.54, C 2.36, R 3.12, P 3.25, F 2.05
T24: D 3.76, I 2.47, C 2.57, P 2.41, G 3.15, R 3.38, Q 2.51, V 2.69, F 1.86, L 2.09, Y 1.91, W 1.86, H 2.38, E 4, M 2.63, A 2.5, N 2.92, S 2.51, K 3.13

Variants of: B2
Test: as above
Settings: c terminus: a fixed tail appended

Protein stability index, by site and new letter:
L24: K 2.4
P4: F 1.91
I19: D 1.97
